According to US20170355774A1 (Regeneron, published 2017):

Assays:
[1] = molecular target: T1, human GITR (amino acids M1-V241, NCBI Accession #NP_004186.1) expressed on cells (human, UniProt Q9Y5U5 26-241); experiment: ECL cell binding, hGITR/HEK293-D9
T1 construct: also called hGITR; hGITR/HEK293-D9
T1 sequence: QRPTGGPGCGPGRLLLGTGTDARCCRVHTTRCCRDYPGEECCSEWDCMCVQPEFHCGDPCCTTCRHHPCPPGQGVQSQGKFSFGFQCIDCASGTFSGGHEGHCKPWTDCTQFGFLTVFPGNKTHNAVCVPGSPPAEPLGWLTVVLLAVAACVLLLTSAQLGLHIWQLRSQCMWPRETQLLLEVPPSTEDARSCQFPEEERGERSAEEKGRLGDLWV
Outline: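 Cells blocked with 2% BSA, then antibody dilutions from 1.7 pM to 100 nM added 1 h at RT. Bound antibody detected with SULFO-TAG anti-human kappa antibody, electrochemiluminescence read, RLU fitted by four-parameter logistic; signal at 100 nM on hGITR cells versus parental cells also recorded.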

[2] = molecular target: T2, mfGITR.mmh (Macaca fasicularis); experiment: SPR 37C, mAb capture
T2 construct: soluble monomeric construct; also called Macaca fasicularis (mf) GITR.mmh; cynomolgus GITR protein
T2 chain: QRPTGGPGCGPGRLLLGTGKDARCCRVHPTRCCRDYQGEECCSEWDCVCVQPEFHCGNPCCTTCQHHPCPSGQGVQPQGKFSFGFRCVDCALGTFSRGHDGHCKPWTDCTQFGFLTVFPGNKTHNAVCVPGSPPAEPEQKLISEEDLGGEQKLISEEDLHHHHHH

[3] = molecular target: T3, hGITR.mmh (human); experiment: SPR 37C, mAb capture
T3 construct: soluble monomeric construct; also called human (h) GITR.mmh; monomeric human GITR
T3 chain: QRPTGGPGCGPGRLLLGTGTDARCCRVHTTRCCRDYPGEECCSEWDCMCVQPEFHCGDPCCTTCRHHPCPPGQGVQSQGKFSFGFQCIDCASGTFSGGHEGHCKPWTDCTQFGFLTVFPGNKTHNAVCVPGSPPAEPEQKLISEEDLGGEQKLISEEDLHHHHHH

[4] = molecular target: T4, hGITR.mFc (human); experiment: SPR 37C, mAb capture
T4 construct: soluble dimeric construct with mouse Fc; also called dimeric human GITR
T4 chain: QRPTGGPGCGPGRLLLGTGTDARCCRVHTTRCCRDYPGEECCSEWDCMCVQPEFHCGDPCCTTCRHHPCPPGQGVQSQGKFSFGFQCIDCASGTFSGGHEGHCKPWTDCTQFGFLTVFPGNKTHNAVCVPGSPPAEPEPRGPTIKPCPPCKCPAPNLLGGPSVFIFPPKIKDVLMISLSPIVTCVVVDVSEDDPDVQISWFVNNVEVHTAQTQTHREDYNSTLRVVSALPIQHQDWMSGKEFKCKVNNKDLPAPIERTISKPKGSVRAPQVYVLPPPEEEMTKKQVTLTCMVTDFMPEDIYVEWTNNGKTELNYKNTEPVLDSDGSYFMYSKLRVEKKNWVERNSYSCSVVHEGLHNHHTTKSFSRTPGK

[5] = molecular target: T1, human GITR (amino acids M1-V241, NCBI …); experiment: cell-based or functional assay
[6] = molecular target: T1, human GITR (amino acids M1-V241, NCBI …); experiment: cell-based or functional assay; remark: listed apart in the source
[7] = molecular target: T1, human GITR (amino acids M1-V241, NCBI …); experiment: cell-based or functional assay; remark: listed apart in the source
[8] = molecular target: T1, human GITR (amino acids M1-V241, NCBI …); experiment: cell-based or functional assay; remark: listed apart in the source
[9] = molecular target: T1, human GITR (amino acids M1-V241, NCBI …); experiment: cell-based or functional assay; remark: listed apart in the source
[10] = molecular target: T1, human GITR (amino acids M1-V241, NCBI …); experiment: cell-based or functional assay; remark: listed apart in the source
[11] = molecular target: T1, human GITR (amino acids M1-V241, NCBI …); experiment: cell-based or functional assay; remark: listed apart in the source

B1: H4H14536P2 (antibody, human IgG4, V domains shown)
VH: QVQLQESGPGLVKPSETLSLTCIVSGGSISGYFWNWIRQPPGKGLEWIGYIYYSGTTIYNPSLKSRFTISLDTSKNQFSLKLTSVTAADTAVYYCARESYNPSPRYFDHWGQGTLVTVSS
VL: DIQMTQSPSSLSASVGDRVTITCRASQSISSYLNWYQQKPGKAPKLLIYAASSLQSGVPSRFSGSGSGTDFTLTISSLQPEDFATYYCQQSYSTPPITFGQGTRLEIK
notes: human IgG4 (H4H)
Average Signal (RLU) at 100 nM [1]: 8960 RLU | EC50 [1]: 0.36 nM | Kd [2]: 142 nM | koff [2]: 0.0147 s⁻¹ | kon [2]: 104000 M⁻¹ s⁻¹ | t½ [2]: 0.8 min | Kd [3]: 23 nM | koff [3]: 0.00976 s⁻¹ | kon [3]: 424000 M⁻¹ s⁻¹ | t½ [3]: 1.2 min | Kd [4]: 0.173 nM | koff [4]: 0.000219 s⁻¹ | kon [4]: 1.26e+06 M⁻¹ s⁻¹ | t½ [4]: 52.7 min | fold activation, T-cell proliferation, 33 nM, FcgR anchored, donor 1 [5]: 1.3 fold | fold activation, T-cell proliferation, 33 nM, FcgR anchored, donor 2 [5]: 6.3 fold | fold activation, T-cell proliferation, 33 nM, FcgR anchored, donor 3 [5]: 1.5 fold | fold activation, T-cell proliferation, 33 nM, FcgR anchored, donor 4 [5]: 2.7 fold | fold activation, T-cell proliferation, 33 nM, FcgR anchored, donor 5 [5]: 15.7 fold | fold activation, T-cell proliferation, 33 nM, FcgR anchored, mean [5]: 5.5 fold | EC50, T-cell proliferation, FcgR anchored, donor 1 [6]: 1.2 nM | EC50, T-cell proliferation, FcgR anchored, donor 2 [6]: 0.5 nM | EC50, T-cell proliferation, FcgR anchored, donor 3 [6]: 1.3 nM | EC50, T-cell proliferation, FcgR anchored, donor 4 [6]: 11.2 nM | EC50, T-cell proliferation, FcgR anchored, donor 5 [6]: 1.6 nM | EC50, T-cell proliferation, FcgR anchored, mean [6]: 3.2 nM | fold activation, T-cell proliferation, plate-bound Ab 10.6 nM, donor 1 [7]: 3 fold | fold activation, T-cell proliferation, plate-bound Ab 10.6 nM, donor 2 [7]: 24 fold | fold activation, T-cell proliferation, plate-bound Ab 10.6 nM, donor 3 [7]: 24 fold | fold activation, T-cell proliferation, plate-bound Ab 10.6 nM, donor 4 [7]: 25 fold | fold activation, T-cell proliferation, plate-bound Ab 10.6 nM, donor 5 [7]: 24 fold | fold activation, T-cell proliferation, plate-bound Ab 10.6 nM, donor 6 [7]: 47 fold | fold activation, T-cell proliferation, plate-bound Ab 10.6 nM, donor 7 [7]: 26 fold | fold activation, T-cell proliferation, plate-bound Ab 10.6 nM, donor 8 [7]: 16 fold | fold activation, T-cell proliferation, plate-bound Ab 10.6 nM, mean [7]: 23 fold | % Activation, NF-kB-Luc, non-anchored [8]: 20% | % Blocking, NF-kB-Luc, non-anchored [8]: 90% | EC50, hGITR activation, NF-kB-Luc, non-anchored [8]: 1.1 nM | IC50, blocking of hGITRL stimulation, NF-kB-Luc, non-anchored [8]: 2 nM | fold activation, T-cell proliferation, 22 nM, non-anchored, donor 1 [9]: 6.2 fold | fold activation, T-cell proliferation, 22 nM, non-anchored, donor 2 [9]: 4.2 fold | fold activation, T-cell proliferation, 22 nM, non-anchored, donor 3 [9]: 10.1 fold | fold activation, T-cell proliferation, 22 nM, non-anchored, donor 4 [9]: 23.4 fold | fold activation, T-cell proliferation, 22 nM, non-anchored, mean [9]: 11 fold | EC50, T-cell proliferation, non-anchored, average [10]: 8.3 nM | EC50, T-cell proliferation, non-anchored, donor 1 [10]: 12.2 nM | EC50, T-cell proliferation, non-anchored, donor 2 [10]: 6.4 nM | EC50, T-cell proliferation, non-anchored, donor 3 [10]: 9 nM | EC50, T-cell proliferation, non-anchored, donor 4 [10]: 5.7 nM | EC50, hGITR activation, NF-kB-Luc, FcgR anchored [11]: 0.01 nM | Fold Activation over basal signal, NF-kB-Luc, FcgR anchored [11]: 5 fold | IC50, blocking of hGITRL stimulation, NF-kB-Luc, FcgR anchored [11]: 0.2 nM
